We go through five substances from PMC4522657, “Identification of a DYRK1A Inhibitor that Induces Degradation of the Target Kinase using Co-chaperone CDC37 fused with Luciferase nanoKAZ” (Scientific Reports, 2015).

One test deals with CDC37 (CDC37-nanoKAZ) (UniProt Q16543). As to the kind of experiment: anti-FLAG plate capture, luciferase-fusion luminescence. The note with it: reference: wild type.
Another test has as its target HSP90β (nanoKAZ-HSP90β) (UniProt P08238). Described as above. The note with it: reference: wild type.

DYRK1A (from UniProt Q13627) Y111F displayed a fold change with CDC37 (CDC37-nanoKAZ) (sites Y111) of 1.4.

On to “DYRK1A (from UniProt Q13627) Y319F/Y321F”, for which the figures for the fold change in the test with HSP90β (nanoKAZ-HSP90β) (sites Y319,Y321) and with CDC37 (CDC37-nanoKAZ) (sites Y319,Y321) were 3.8 and 8, respectively.

For “DYRK1A (from UniProt Q13627) K188R kinase-dead (no autophosphorylation)”, the fold change in the test with HSP90β (nanoKAZ-HSP90β) is 10; with CDC37 (CDC37-nanoKAZ), 17.

DYRK1A (from UniProt Q13627) Y159F showed a fold change with CDC37 (CDC37-nanoKAZ) (sites Y159) of 8.4.

On to “DYRK1A (from UniProt Q13627) Y145F/Y147F”, for which the fold change with CDC37 (CDC37-nanoKAZ) (sites Y145,Y147) is 2.4.
